Results as given in US20230357348A1 (AstraZeneca / MedImmune, published 2023).
Starred links: 1 amine or outer side, 2 acyl side, 3 side chain; linkers in the order of their positions; H or OH if unused. Non-standard residues stand in square brackets, D forms with d. Groups on a side chain read outwards from the residue. No end group written: not given here. *: point of attachment. C20 diacid = O=C(O)CCCCCCCCCCCCCCCCCCC(=O)*; C18 diacid = O=C(O)CCCCCCCCCCCCCCCCC(=O)*; γGlu = O=C(O)[C@H](CCC(=O)[*:2])N[*:1]; αMeF = C[C@](N)(Cc1ccccc1)C(=O)O; AEEA = NCCOCCOCC(=O)O; Aib = CC(C)(N)C(=O)O

B1: Peptide 466 (peptide)
peptide: H[Aib]QGTFTSDVSK[αMeF]LDTK([AEEA-AEEA-γGlu-C18 diacid])RAQDFVQWLLE[Aib]G-NH2
modifications: N-terminus assumed
SMILES: CC(C)C[C@H](NC(=O)[C@H](Cc1c[nH]c2ccccc12)NC(=O)[C@H](CCC(N)=O)NC(=O)[C@@H](NC(=O)[C@H](Cc1ccccc1)NC(=O)[C@H](CC(=O)O)NC(=O)[C@H](CCC(N)=O)NC(=O)[C@H](C)NC(=O)[C@H](CCCNC(=N)N)NC(=O)[C@H](CCCCNC(=O)COCCOCCNC(=O)COCCOCCNC(=O)CC[C@H](NC(=O)CCCCCCCCCCCCCCCCC(=O)O)C(=O)O)NC(=O)[C@@H](NC(=O)[C@H](CC(=O)O)NC(=O)[C@H](CC(C)C)NC(=O)[C@](C)(Cc1ccccc1)NC(=O)[C@H](CCCCN)NC(=O)[C@H](CO)NC(=O)[C@@H](NC(=O)[C@H](CC(=O)O)NC(=O)[C@H](CO)NC(=O)[C@@H](NC(=O)[C@H](Cc1ccccc1)NC(=O)[C@@H](NC(=O)CNC(=O)[C@H](CCC(N)=O)NC(=O)C(C)(C)NC(=O)[C@@H](N)Cc1c[nH]cn1)[C@@H](C)O)[C@@H](C)O)C(C)C)[C@@H](C)O)C(C)C)C(=O)N[C@@H](CC(C)C)C(=O)N[C@@H](CCC(=O)O)C(=O)NC(C)(C)C(=O)NCC(N)=O
B2: Peptide 473 (peptide)
peptide: H[Aib]QGTFTSDVSK[αMeF]LDRK([AEEA-AEEA-γGlu-C18 diacid])RARDFVQWLL[Aib]E-NH2
modifications: N-terminus assumed
SMILES: CC(C)C[C@H](NC(=O)[C@H](Cc1c[nH]c2ccccc12)NC(=O)[C@H](CCC(N)=O)NC(=O)[C@@H](NC(=O)[C@H](Cc1ccccc1)NC(=O)[C@H](CC(=O)O)NC(=O)[C@H](CCCNC(=N)N)NC(=O)[C@H](C)NC(=O)[C@H](CCCNC(=N)N)NC(=O)[C@H](CCCCNC(=O)COCCOCCNC(=O)COCCOCCNC(=O)CC[C@H](NC(=O)CCCCCCCCCCCCCCCCC(=O)O)C(=O)O)NC(=O)[C@H](CCCNC(=N)N)NC(=O)[C@H](CC(=O)O)NC(=O)[C@H](CC(C)C)NC(=O)[C@](C)(Cc1ccccc1)NC(=O)[C@H](CCCCN)NC(=O)[C@H](CO)NC(=O)[C@@H](NC(=O)[C@H](CC(=O)O)NC(=O)[C@H](CO)NC(=O)[C@@H](NC(=O)[C@H](Cc1ccccc1)NC(=O)[C@@H](NC(=O)CNC(=O)[C@H](CCC(N)=O)NC(=O)C(C)(C)NC(=O)[C@@H](N)Cc1c[nH]cn1)[C@@H](C)O)[C@@H](C)O)C(C)C)C(C)C)C(=O)N[C@@H](CC(C)C)C(=O)NC(C)(C)C(=O)N[C@@H](CCC(=O)O)C(N)=O
B3: Peptide 472 (peptide)
peptide: H[Aib]QGTFTSDVSK[αMeF]LDKK([AEEA-AEEA-γGlu-C18 diacid])RARDFVQWLL[Aib]E-NH2
modifications: N-terminus assumed
SMILES: CC(C)C[C@H](NC(=O)[C@H](Cc1c[nH]c2ccccc12)NC(=O)[C@H](CCC(N)=O)NC(=O)[C@@H](NC(=O)[C@H](Cc1ccccc1)NC(=O)[C@H](CC(=O)O)NC(=O)[C@H](CCCNC(=N)N)NC(=O)[C@H](C)NC(=O)[C@H](CCCNC(=N)N)NC(=O)[C@H](CCCCNC(=O)COCCOCCNC(=O)COCCOCCNC(=O)CC[C@H](NC(=O)CCCCCCCCCCCCCCCCC(=O)O)C(=O)O)NC(=O)[C@H](CCCCN)NC(=O)[C@H](CC(=O)O)NC(=O)[C@H](CC(C)C)NC(=O)[C@](C)(Cc1ccccc1)NC(=O)[C@H](CCCCN)NC(=O)[C@H](CO)NC(=O)[C@@H](NC(=O)[C@H](CC(=O)O)NC(=O)[C@H](CO)NC(=O)[C@@H](NC(=O)[C@H](Cc1ccccc1)NC(=O)[C@@H](NC(=O)CNC(=O)[C@H](CCC(N)=O)NC(=O)C(C)(C)NC(=O)[C@@H](N)Cc1c[nH]cn1)[C@@H](C)O)[C@@H](C)O)C(C)C)C(C)C)C(=O)N[C@@H](CC(C)C)C(=O)NC(C)(C)C(=O)N[C@@H](CCC(=O)O)C(N)=O
B4: Peptide 474 (peptide)
peptide: H[Aib]QGTFTSDVSK[αMeF]LDTK([AEEA-AEEA-γGlu-C18 diacid])RARDFVQWLLA[Aib]G-NH2
modifications: N-terminus assumed
SMILES: CC(C)C[C@H](NC(=O)[C@H](CC(C)C)NC(=O)[C@H](Cc1c[nH]c2ccccc12)NC(=O)[C@H](CCC(N)=O)NC(=O)[C@@H](NC(=O)[C@H](Cc1ccccc1)NC(=O)[C@H](CC(=O)O)NC(=O)[C@H](CCCNC(=N)N)NC(=O)[C@H](C)NC(=O)[C@H](CCCNC(=N)N)NC(=O)[C@H](CCCCNC(=O)COCCOCCNC(=O)COCCOCCNC(=O)CC[C@H](NC(=O)CCCCCCCCCCCCCCCCC(=O)O)C(=O)O)NC(=O)[C@@H](NC(=O)[C@H](CC(=O)O)NC(=O)[C@H](CC(C)C)NC(=O)[C@](C)(Cc1ccccc1)NC(=O)[C@H](CCCCN)NC(=O)[C@H](CO)NC(=O)[C@@H](NC(=O)[C@H](CC(=O)O)NC(=O)[C@H](CO)NC(=O)[C@@H](NC(=O)[C@H](Cc1ccccc1)NC(=O)[C@@H](NC(=O)CNC(=O)[C@H](CCC(N)=O)NC(=O)C(C)(C)NC(=O)[C@@H](N)Cc1c[nH]cn1)[C@@H](C)O)[C@@H](C)O)C(C)C)[C@@H](C)O)C(C)C)C(=O)N[C@@H](C)C(=O)NC(C)(C)C(=O)NCC(N)=O
B5: Peptide 469 (peptide)
peptide: H[Aib]QGTFTSDVSK[αMeF]LDTK([AEEA-AEEA-γGlu-γGlu-C20 diacid])RAQDFVQWLLE[Aib]G-NH2
modifications: N-terminus assumed
SMILES: CC(C)C[C@H](NC(=O)[C@H](Cc1c[nH]c2ccccc12)NC(=O)[C@H](CCC(N)=O)NC(=O)[C@@H](NC(=O)[C@H](Cc1ccccc1)NC(=O)[C@H](CC(=O)O)NC(=O)[C@H](CCC(N)=O)NC(=O)[C@H](C)NC(=O)[C@H](CCCNC(=N)N)NC(=O)[C@H](CCCCNC(=O)COCCOCCNC(=O)COCCOCCNC(=O)CC[C@H](NC(=O)CC[C@H](NC(=O)CCCCCCCCCCCCCCCCCCC(=O)O)C(=O)O)C(=O)O)NC(=O)[C@@H](NC(=O)[C@H](CC(=O)O)NC(=O)[C@H](CC(C)C)NC(=O)[C@](C)(Cc1ccccc1)NC(=O)[C@H](CCCCN)NC(=O)[C@H](CO)NC(=O)[C@@H](NC(=O)[C@H](CC(=O)O)NC(=O)[C@H](CO)NC(=O)[C@@H](NC(=O)[C@H](Cc1ccccc1)NC(=O)[C@@H](NC(=O)CNC(=O)[C@H](CCC(N)=O)NC(=O)C(C)(C)NC(=O)[C@@H](N)Cc1c[nH]cn1)[C@@H](C)O)[C@@H](C)O)C(C)C)[C@@H](C)O)C(C)C)C(=O)N[C@@H](CC(C)C)C(=O)N[C@@H](CCC(=O)O)C(=O)NC(C)(C)C(=O)NCC(N)=O
B6: Peptide 471 (peptide)
peptide: H[Aib]QGTFTSDVSK[αMeF]LDRK([AEEA-AEEA-γGlu-C20 diacid])RARDFVQWLL[Aib]E-NH2
B7: Peptide 468 (peptide)
peptide: H[Aib]QGTFTSDVSK[αMeF]LDTK([AEEA-AEEA-γGlu-γGlu-C18 diacid])RAQDFVQWLLE[Aib]G-NH2
B8: Peptide 470 (peptide)
peptide: H[Aib]QGTFTSDVSK[αMeF]LDKK([AEEA-AEEA-γGlu-C20 diacid])RARDFVQWLL[Aib]E-NH2
modifications: N-terminus assumed
SMILES: CC(C)C[C@H](NC(=O)[C@H](Cc1c[nH]c2ccccc12)NC(=O)[C@H](CCC(N)=O)NC(=O)[C@@H](NC(=O)[C@H](Cc1ccccc1)NC(=O)[C@H](CC(=O)O)NC(=O)[C@H](CCCNC(=N)N)NC(=O)[C@H](C)NC(=O)[C@H](CCCNC(=N)N)NC(=O)[C@H](CCCCNC(=O)COCCOCCNC(=O)COCCOCCNC(=O)CC[C@H](NC(=O)CCCCCCCCCCCCCCCCCCC(=O)O)C(=O)O)NC(=O)[C@H](CCCCN)NC(=O)[C@H](CC(=O)O)NC(=O)[C@H](CC(C)C)NC(=O)[C@](C)(Cc1ccccc1)NC(=O)[C@H](CCCCN)NC(=O)[C@H](CO)NC(=O)[C@@H](NC(=O)[C@H](CC(=O)O)NC(=O)[C@H](CO)NC(=O)[C@@H](NC(=O)[C@H](Cc1ccccc1)NC(=O)[C@@H](NC(=O)CNC(=O)[C@H](CCC(N)=O)NC(=O)C(C)(C)NC(=O)[C@@H](N)Cc1c[nH]cn1)[C@@H](C)O)[C@@H](C)O)C(C)C)C(C)C)C(=O)N[C@@H](CC(C)C)C(=O)NC(C)(C)C(=O)N[C@@H](CCC(=O)O)C(N)=O
B9: Peptide 475 (peptide)
peptide: H[Aib]QGTFTSDVSK[αMeF]LDTK([AEEA-AEEA-γGlu-C20 diacid])RARDFVQWLLA[Aib]G-NH2
modifications: N-terminus assumed
SMILES: CC(C)C[C@H](NC(=O)[C@H](CC(C)C)NC(=O)[C@H](Cc1c[nH]c2ccccc12)NC(=O)[C@H](CCC(N)=O)NC(=O)[C@@H](NC(=O)[C@H](Cc1ccccc1)NC(=O)[C@H](CC(=O)O)NC(=O)[C@H](CCCNC(=N)N)NC(=O)[C@H](C)NC(=O)[C@H](CCCNC(=N)N)NC(=O)[C@H](CCCCNC(=O)COCCOCCNC(=O)COCCOCCNC(=O)CC[C@H](NC(=O)CCCCCCCCCCCCCCCCCCC(=O)O)C(=O)O)NC(=O)[C@@H](NC(=O)[C@H](CC(=O)O)NC(=O)[C@H](CC(C)C)NC(=O)[C@](C)(Cc1ccccc1)NC(=O)[C@H](CCCCN)NC(=O)[C@H](CO)NC(=O)[C@@H](NC(=O)[C@H](CC(=O)O)NC(=O)[C@H](CO)NC(=O)[C@@H](NC(=O)[C@H](Cc1ccccc1)NC(=O)[C@@H](NC(=O)CNC(=O)[C@H](CCC(N)=O)NC(=O)C(C)(C)NC(=O)[C@@H](N)Cc1c[nH]cn1)[C@@H](C)O)[C@@H](C)O)C(C)C)[C@@H](C)O)C(C)C)C(=O)N[C@@H](C)C(=O)NC(C)(C)C(=O)NCC(N)=O

Target: human GLP-1 receptor (hGLP-1R) (human, UniProt P43220 24-463)
Experiment: cell-based or functional assay

Row | hGLP-1R EC50 (pM) | Binder
1 | 35.6 | B1
2 | 11.5 | B2
3 | 7.63 | B3
4 | 8.04 | B4
5 | 255 | B5
6 | 102 | B6
7 | 67.5 | B7
8 | 55.9 | B8
9 | 6.75 | B9

Target: human glucagon receptor (hGCGR) (human, UniProt P47871 26-477)
Sequence (P47871 26-477): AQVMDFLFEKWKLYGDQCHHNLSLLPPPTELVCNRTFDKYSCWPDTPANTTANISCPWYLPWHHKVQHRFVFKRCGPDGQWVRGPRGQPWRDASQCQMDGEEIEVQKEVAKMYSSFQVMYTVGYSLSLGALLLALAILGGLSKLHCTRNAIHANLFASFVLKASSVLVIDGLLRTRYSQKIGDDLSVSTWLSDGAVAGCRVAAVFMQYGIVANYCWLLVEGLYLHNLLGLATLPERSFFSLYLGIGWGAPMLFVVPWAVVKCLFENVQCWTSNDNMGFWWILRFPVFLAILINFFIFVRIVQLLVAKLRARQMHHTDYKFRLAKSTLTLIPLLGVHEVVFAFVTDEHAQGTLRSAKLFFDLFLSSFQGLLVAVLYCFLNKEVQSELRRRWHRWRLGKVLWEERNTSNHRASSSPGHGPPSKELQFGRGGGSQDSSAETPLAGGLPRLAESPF
Experiment: cell-based or functional assay

Row | hGluc-R EC50 (pM) | Binder
10 | 131 | B1
11 | 14.1 | B2
12 | 11.1 | B3
13 | 56.9 | B4
14 | 538 | B5
15 | 63.6 | B6
16 | 292 | B7
17 | 30.3 | B8
18 | 61.5 | B9
